Measured values reported in paper PMC10140343.

Target: recombinant ScCD8α extracellular IgSF V domain (Ser20-Met163) (small-spotted catshark (Scyliorhinus canicula))
Experiment: native gel or EMSA; PAGE under non-reducing conditions of purified recombinant ScCD8α; Tris-Gly buffer pH 4.4, ice-water bath, 120 V, 2 h; band of approx. 32 kDa against approx. 16 kDa in reducing SDS-PAGE

## recombinant ScCD8α extracellular IgSF V domain (Ser20-Met163) (domain or fragment)
  stoichiometry N: 2
